Measured values taken from PMC10006087, “The TINCR ubiquitin-like microprotein is a tumor suppressor in squamous cell carcinoma” (Nature Communications, 2023).

Molecular target: the molecule itself
Assay: crystal structure; micro-batch under oil at 4 °C with seeding; 0.1 M magnesium sulfate heptahydrate, 0.1 M sodium acetate pH 5, 20% (w/v) PEG 1000; space group P4(3)2(1)2; 2.12 Å; two protomers in the asymmetric unit

B1: human TINCR protein (natural protein, UniProt A0A2R8Y7D0 1-87, looked up)
chain: MEGLRRGLSRWKRYHIKVHLADEALLLPLTVRPRDTLSDLRAQLVGQGVSSWKRAFYYNARRLDDHQTVRDARLQDGSVLLLVSDPR
notes: TINCR ubiquitin-like microprotein, human; The N-terminal 15-residue cap is visible in protomer A only; also called TINCR ubiquitin-like microprotein; TINCR recombinant protein
- binding result: binds
